Source: patent US20200176073A1

Biological target: CXCR4 cognate ligand SDF1a (or CCL12) (UniProt P48061)
Test: ELISA, water-soluble CXCR4 with CCL12 (SDF1a), assay concentrations 50 nM to 10 uM

Sequence of CXCR4 cognate ligand SDF1a (or CCL12) (P48061 22-89 limits assumed): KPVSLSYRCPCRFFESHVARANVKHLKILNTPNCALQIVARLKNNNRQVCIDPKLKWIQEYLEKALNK

## water-soluble CXCR4-QTY protein, produced in E. coli BL21 (DE3) and purified with 1D4 rho-tag monoclonal antibody (receptor)
  Kd: 0.08 µM
